For the test, the target named is T1, HLA-A*02:01 (human).
T1 construct: MHC monomer first loaded with a UV-sensitive peptide that is cleaved by UV light and exchanged for the test peptide; captured on streptavidin plates and detected with anti-b2m; also called peptide-receptive MHC molecules; MHC class I
Nature of the test: UV peptide-exchange ELISA, exchange yield grade. The text has this:
Candidate peptides for T cell based therapies according to the present invention were further tested for their MHC binding capacity (affinity). The individual peptide-MHC complexes were produced by UV-ligand exchange, where a UV-sensitive peptide is cleaved upon UV-irradiation, and exchanged with the peptide of interest as analyzed. Only peptide candidates that can effectively bind and stabilize the peptide-receptive MHC molecules prevent dissociation of the MHC complexes. To determine the yield of the exchange reaction, an ELISA was performed based on the detection of the light chain (B2m) of stabilized MHC complexes. The assay was performed as generally described in Rodenko et al. (Rodenko et al., 2006).
96 well MAXISorp plates (NUNC) were coated over night with 2 μg/ml streptavidin in PBS at room temperature, washed 4× and blocked for 1 h at 37° C. in 2% BSA containing blocking buffer. Refolded HLA-A*02:01/MLA-001 monomers served as standards, covering the range of 15-500 ng/ml. Peptide-MHC monomers of the UV-exchange reaction were diluted 100 fold in blocking buffer. Samples were incubated for 1h at 37° C., washed four times, incubated with 2 μg/ml HRP conjugated anti-β2m for 1h at 37° C., washed again and detected with TMB solution that is stopped with […]. Absorption was measured at 450 nm. Candidate peptides that show a high exchange yield (preferably higher than 50%, most preferred higher than 75%) are generally preferred for a generation and production of antibodies or fragments thereof, and/or T cell receptors or fragments thereof, as they show sufficient avidity to the MHC molecules and prevent dissociation of the MHC complexes.

Bounds are passed on as bounds.

FILPSSLYL came in with a peptide exchange yield of at least 75%.

As to LAIVPVNTL, the peptide exchange yield was in the range of 50 to 75%. For FIMEGGAMVL, the peptide exchange yield was 50 to 75%.

(Values after patent US20240285738A1 (IMMATICS BIOTECHNOLOGIES, published 2024).)
